# Patent US20230115257A1 (published 2023)
# Tests used:
# Assay in all cases: ELISA
# [1] = target: T1, SARS-CoV-2 P.1 spike protein (SARS-CoV-2 P.1 (Gamma), UniProt P0DTC2 13-1213)
# [2] = target: SARS-CoV-2 B.1.1.7 spike protein (SARS-CoV-2 B.1.1.7 (Alpha), UniProt P0DTC2 13-1213)
# [3] = target: T1, SARS-CoV-2 P.1 spike protein; remark: listed apart in the source
binder,measurement,setting,value
"4-N22-A (antibody, V domains shown) VH: QVQLQQPGTELVKPGASVKLSCKASGYTFTNYWMYWVKQRPGQGLDWIGNINPSNGGTNYNEKFKSKATLTVDKSSSTAYMQLSSLTSEDSAVYYCARETGNYWGQGTTLTVSS VL: DILMTQSPSSMSVSLGDTVSISCHASQGISSNIGWLQQKPGKSFKGLIYHGTNLEDGVPSRFSGSGSGADYSLTISSLESEDFADYYCVQYAQFPYTFGGGTKLEIK",IC50,[1],17.2 nM
same,IC50,[2],1.51 nM
"4-M3-A (antibody, V domains shown) VH: EVQLQQSGPELVKPGDSVKISCKASGYSFTGYFMNWVMQSHGKSLEWIGRINPNNGETFYNQKFKGKATLTVDKSSDTAHMELRSLTSEDSAVYYCARGGTGTGWGQGTTLTVSS VL: DILMTQSPSSMSVSLGDTVSITCHASQGISSNIGWLQQKPGKSFKGLIYYGTNLEDGVPSRFSGSGSGADYSLTISSLESEDLADYYCIQYAQFPYTFGGGTKLEIK",IC50,[1],13.5 nM
same,IC50,[2],4.98 nM
"2-H7-A (antibody, V domains shown) VH: QAYLQQSGAELVRPGASVKMSCKASGYTFTGYTMHWVKQTPRQGLEWIGAIYPENGDTSYNQKFKGKATLTVDKSSSTAYMQLSSLTSEDSAVYFCARDGYDVLYGMDYWGQGTSVTVSS VL: DIVLTQSPASLAVSLGQRATISCRASKSVSTSGYSYMHWYQQKPGQPPKLLIYLASNLESGVPARFSGSGSGTDFTLNIHPVEEEDAATYYCQHSRELPWTFGGGTKLDIK",IC50,[1],35.6 nM
same,IC50,[2],9.88 nM
"2-G20-A (antibody, V domains shown) VH: EVQLQQSGPELVKPGASVKMSCKASGYTFPSYVLHWVKQKPGQGLEWIGYIYPYNDGTNYNEKFKGKATLTSDKSSSTAYMELSSLTSEDSAVYYCARGDYGDSAWFPYWGQGTLVTVSA VL: DIVLTQSPASLAVSLGQRATISCRASKSVSTSGYSYMHWYQQKPGQPPKLLIYLASNLKSGVPARFSGGGSGTDFTLNIHPVEEEDAATYYCQLSRELPWTFGGGTKLEIK",IC50,[1],18.9 nM
same,IC50,[2],19.2 nM
"8-H5-A (antibody, V domains shown) VH: QVTLKESGPGILQSSQTLSLTCSLSGFSLSTSGMGVSWVRQPSGKGLEWLAHIYWDDDKRYTPSLKSRLTISTDSSRKQVFLKITSVDTADTATYYCARRDLHDYDGWFAYWGQGTLVTVSA VL: DIVMTQSQKFMSTAVGDRVSVTCKASQNVGTNVAWYQQKPGQSPKALIYSASFRYSGVPDRFSGSGSGTDFTLTISNVQSEDLAEYFCQQYNSYPLTFGSGTKLEIK",IC50,[1],30.5 nM
same,IC50,[2],15.4 nM
"10-J24-A (antibody, V domains shown) VH: EVQLVESGGGLVKPGGSLKLSCAASGFTFSSYAMSWVRQNPAKRLEWVATISGGGGFTYYPDSVKGRFTISRDNAKNTLYLQMNSLRSEDTAMYYCARDEDGKHDYFDYWGQGTTLTVSS VL: DIVMTQSHKFMSTSVGDRVSITCKASQDVGTAVAWYQQKPGQSPKLLIYWASTRHTGVPDRFTGSGSGTDFTLTISNVQSEDLADYFCQQYASYPLTFGGGTKLVIK",EC50,[3],16.1 nM
"4-C22-A (antibody, V domains shown) VH: EVQLVESGGDLVKPGGSLKLSCAASGFTFSSFGMSWVRQTPDKRLEWVATISSGGGFTYYPDSVEGRFTISRDNAKNTLYLQMSSLKSEDTAMYYCARRLYDYDWFAYWGQGTLVTVSA VL: DIVMTQSHKIMSTSVGDRVSITCKASQDVVTAVAWYQKKPGQSPKLLIHWASTRHTGVPDRFTGSGSGTDFTLTISNVQSEDLADYFCQQYSSYPLTFGAGTKLELK",EC50,[3],1.44 nM
"1-L10-A (antibody, V domains shown) VH: EVKLEESGGGLVQPGGSMKLSCVASGFTFNNYWMNWVRQSPEKGLEWVAQMRLKSDNYATHYAESVKGRFTISRDDSKSSVYLQMNNLRAEDTGIYYCIEGYWTYWGQGTLVTVSA VL: QIVLTQSPAIMSASLGERVTMTCTASSSVSSSYLHWYQQKPGSSPKLWIYSTSNLASGVPARFSGNGSGTSYSLTISSMEAEDAATYYCLQYHRSPPYTFGGGTKLEIK",IC50,[1],11.5 nM
same,IC50,[2],7.82 nM
"6-C19-A (antibody, V domains shown) VH: QIQLVQSGPELKKPGETVKISCKASGNTFTTAGMQWVQKMPGKGFKWIGWINTHSGEPKYAEDFKGRFAFSLETSASTAYLQISNLKNEDTATYFCARYGDYYYFDCWGQGTTLTVSS VL: DIQMTQSPASLSASVGETVTITCRASGNIHNYLAWYQQKQGKSPQLLVYNAKTLADGVPSRFSGSGSGTQYSLKINSLQPEDFGSFYCQHFWTTPWSFGGGTKLEIK",EC50,[3],0.62 nM
"2-O12-A (antibody, V domains shown) VH: EVQLQQSGPELVKPGASVKISCKASGYTFTDYYMNWVKQSHGKSLEWIGDINSNNGGTTYDQKFKGKATLTVDRSSSTAYMELRSLTSEDSAVYYCARRGDGHFGGFTYWGQGTLVTVSA VL: not shown",IC50,[2],87.6 nM
"4-L4-A (antibody, V domains shown) VH: QAYLQQSGAELVRPGASVKMSCKASGYTFTSYTVHWVKQTPRQGLEWIGGIYPGNVDTSYNQNFKGKATLTVDKSSSTAYMQLSSLTSEDSAVYFCARDGYYAMDYWGQGTSVTVSS VL: not shown",IC50,[1],28.2 nM
same,IC50,[2],31.6 nM
"6-O12-A (antibody, V domains shown) VH: QVQLQQPGTELVKPGASVKLSCKASGYTFTSYWMHWVKQRPGQGLEWIGNINPSNGGTNYNEKFRSKATLTVDKSSSTAYMQLSSLTSEDSAVYYCARLGWFLPLGSWGQGTTLTVSS VL: QIVLTQSPAIMSASLGEVITLTCSASSSVSYMHWYQQKSGTSPKLLIYSTSNLASGVPSRFSGSGSGTFYSLTISSVEAEDAADYYCHQWSGYMYTFGGGTKLEIK",IC50,[1],8.01 nM
same,IC50,[2],7.05 nM
"9-L13-A (antibody, V domains shown) VH: QVQLKESGPGLVAPSQSLSITCTVSGFSLTSYAISWVRQPPGKGLEWLGLIWTGGGTNYNSALKSRLSISKDNSKSQIFLKMNSLQTDDTARYYCARGPPLIYYGDLYYFDYWGQGTTLTVSS VL: DIQMTQSPSSLSASLGGKVTITCKASQDINKYIAWYQHKPGKGPRLLIHYTSTLQPGIPSRFSGSGSGRDYSFSISNLEPEDIATYYCLQYDNLWTFGGGTKLEIK",IC50,[2],65.3 nM
